Test results: paper PMC12101485 (Science Advances, 2025)

Biological target: purified human BAG3 protein (human, UniProt O95817 1-575)
Test: peptide or protein array

Chain of purified human BAG3 protein (O95817 whole entry): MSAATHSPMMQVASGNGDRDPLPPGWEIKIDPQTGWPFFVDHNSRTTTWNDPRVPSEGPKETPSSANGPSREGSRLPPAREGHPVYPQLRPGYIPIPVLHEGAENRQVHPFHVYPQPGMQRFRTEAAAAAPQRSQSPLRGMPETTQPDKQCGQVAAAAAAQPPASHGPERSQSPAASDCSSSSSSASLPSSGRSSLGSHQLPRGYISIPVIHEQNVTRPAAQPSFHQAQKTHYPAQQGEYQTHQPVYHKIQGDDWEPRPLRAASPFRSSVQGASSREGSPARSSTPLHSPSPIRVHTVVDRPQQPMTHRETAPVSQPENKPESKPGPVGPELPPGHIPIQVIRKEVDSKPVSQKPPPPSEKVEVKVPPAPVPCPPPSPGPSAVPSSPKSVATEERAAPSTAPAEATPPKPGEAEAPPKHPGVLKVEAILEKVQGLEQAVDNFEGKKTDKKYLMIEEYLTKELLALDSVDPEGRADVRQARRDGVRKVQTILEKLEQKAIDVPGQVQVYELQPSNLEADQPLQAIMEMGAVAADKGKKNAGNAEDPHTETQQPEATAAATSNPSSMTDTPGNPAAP

ICALFMLPLCLMVCQWRCLRCLRQQHDDFA (peptide, UniProt P56817 465-494, looked up) [I465-A494 region of human BACE1 (peptide array spots)]
binding result: binds
